This assay addresses IL-2 receptor (CD25, CD122 and CD132) on Kupffer cells of C57BL/6 mice (mouse (C57BL/6)) (UniProt P01590). The assay can be described thus: cell-based or functional assay.

The values that follow come from patent publication US20240000892A1.

Chain of UniProt P01590 (P01590 22-268, chain 1 of 3): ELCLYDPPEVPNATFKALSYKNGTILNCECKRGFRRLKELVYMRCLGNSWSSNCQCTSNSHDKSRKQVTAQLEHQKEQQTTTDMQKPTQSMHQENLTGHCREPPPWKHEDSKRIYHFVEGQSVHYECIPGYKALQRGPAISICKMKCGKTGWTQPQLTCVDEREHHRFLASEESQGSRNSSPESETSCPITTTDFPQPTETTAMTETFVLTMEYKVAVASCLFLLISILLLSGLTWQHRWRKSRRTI
Chain of UniProt P01590 (P16297 27-539, chain 2 of 3, further chain): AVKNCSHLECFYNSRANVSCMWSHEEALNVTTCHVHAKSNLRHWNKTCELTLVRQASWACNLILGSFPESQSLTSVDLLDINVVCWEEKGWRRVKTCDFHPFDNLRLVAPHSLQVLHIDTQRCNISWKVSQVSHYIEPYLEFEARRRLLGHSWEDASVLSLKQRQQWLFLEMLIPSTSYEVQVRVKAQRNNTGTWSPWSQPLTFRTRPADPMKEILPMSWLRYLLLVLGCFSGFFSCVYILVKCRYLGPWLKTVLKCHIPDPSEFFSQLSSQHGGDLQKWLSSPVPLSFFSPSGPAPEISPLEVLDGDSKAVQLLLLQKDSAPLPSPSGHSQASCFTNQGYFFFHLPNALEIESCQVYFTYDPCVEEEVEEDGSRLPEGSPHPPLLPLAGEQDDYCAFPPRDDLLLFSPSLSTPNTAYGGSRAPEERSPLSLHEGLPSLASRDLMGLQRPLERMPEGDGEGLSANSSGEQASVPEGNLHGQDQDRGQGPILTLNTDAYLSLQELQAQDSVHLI
Chain of UniProt P01590 (P34902 23-369, chain 3 of 3, further chain): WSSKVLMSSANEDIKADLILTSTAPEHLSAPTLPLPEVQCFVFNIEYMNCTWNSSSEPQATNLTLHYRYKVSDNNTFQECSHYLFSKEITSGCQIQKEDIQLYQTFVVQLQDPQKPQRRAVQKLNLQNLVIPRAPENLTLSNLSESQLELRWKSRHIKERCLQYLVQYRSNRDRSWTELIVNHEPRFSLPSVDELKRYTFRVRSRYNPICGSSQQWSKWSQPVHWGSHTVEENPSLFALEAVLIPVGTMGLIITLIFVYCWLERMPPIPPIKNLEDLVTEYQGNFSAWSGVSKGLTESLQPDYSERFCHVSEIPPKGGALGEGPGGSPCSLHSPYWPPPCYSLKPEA

Substance “recombinant IL-2 (402 ML/CF, R&D Systems) (from UniProt P04351 21-169) (ligand)” yielded an IL-2-dependent fold change in STAT5 phosphorylation in KCs, compared with CD4+ FoxP3+ splenic T regulatory cells of 10 fold lower.
